A word on the EC50: it is the concentration needed to bring the measured effect to its halfway point.

Read-outs that look alike come from different tables or passages of the source.

In assay [1] the target is T1, extracellular domain of human AXL protein (AXL-ECD) (human, UniProt P30530 31-449).
T1 construct: expressed in HEK293T cells; coated on the ELISA plate; also called AXL-ECD protein; human AXL extracellular domain protein
T1 sequence: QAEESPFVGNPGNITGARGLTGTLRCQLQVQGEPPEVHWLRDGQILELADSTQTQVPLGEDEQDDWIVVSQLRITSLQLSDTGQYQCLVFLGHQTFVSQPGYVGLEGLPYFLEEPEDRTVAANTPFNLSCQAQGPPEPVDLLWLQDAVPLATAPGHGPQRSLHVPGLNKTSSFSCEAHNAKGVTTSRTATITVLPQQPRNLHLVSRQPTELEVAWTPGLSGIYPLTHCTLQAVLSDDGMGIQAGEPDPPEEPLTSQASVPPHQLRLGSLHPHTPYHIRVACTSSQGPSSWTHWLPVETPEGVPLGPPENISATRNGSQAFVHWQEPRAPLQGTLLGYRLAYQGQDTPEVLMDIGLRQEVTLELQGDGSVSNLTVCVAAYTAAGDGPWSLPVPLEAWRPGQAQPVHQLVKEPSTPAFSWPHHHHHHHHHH
Briefly: ELISA, AXL-ECD. In general terms: In an ELISA, binding on a coated surface is turned into a signal by an enzyme label.

The target in assay [2] is T2, human AXL on the surface of tumor cells (human, UniProt P30530 26-894).
T2 construct: whole, on cells; endogenous protein of human tumor cell lines; the cell line is named under assay or readout; also called AXL on the cell surface
T2 sequence (looked up): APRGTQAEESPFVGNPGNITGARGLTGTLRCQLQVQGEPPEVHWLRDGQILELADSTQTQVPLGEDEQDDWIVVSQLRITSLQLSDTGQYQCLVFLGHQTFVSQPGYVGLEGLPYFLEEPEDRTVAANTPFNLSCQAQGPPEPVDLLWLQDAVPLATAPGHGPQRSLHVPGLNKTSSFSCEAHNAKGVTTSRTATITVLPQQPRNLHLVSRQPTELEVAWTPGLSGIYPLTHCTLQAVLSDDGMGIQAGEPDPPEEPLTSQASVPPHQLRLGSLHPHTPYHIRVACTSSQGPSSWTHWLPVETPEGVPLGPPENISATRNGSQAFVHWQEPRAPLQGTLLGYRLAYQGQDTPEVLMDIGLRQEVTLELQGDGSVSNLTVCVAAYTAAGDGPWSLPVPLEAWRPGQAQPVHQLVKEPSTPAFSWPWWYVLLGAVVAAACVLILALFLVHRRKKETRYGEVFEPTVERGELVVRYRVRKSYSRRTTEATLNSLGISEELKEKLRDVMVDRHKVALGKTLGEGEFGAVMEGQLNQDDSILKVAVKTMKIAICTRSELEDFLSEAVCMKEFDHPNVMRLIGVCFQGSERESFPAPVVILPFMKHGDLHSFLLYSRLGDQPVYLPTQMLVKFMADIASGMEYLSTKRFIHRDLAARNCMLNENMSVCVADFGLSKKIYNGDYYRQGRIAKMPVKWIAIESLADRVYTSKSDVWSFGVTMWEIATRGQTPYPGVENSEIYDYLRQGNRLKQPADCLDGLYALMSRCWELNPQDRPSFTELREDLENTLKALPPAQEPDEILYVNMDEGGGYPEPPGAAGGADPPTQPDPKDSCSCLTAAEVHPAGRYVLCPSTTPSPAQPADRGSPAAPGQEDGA
The experiment in a line: FACS on MDA-MB-231 cells. On the procedure:
(§1) Then the obtained solutions were incubated at 4° C. for 1 h, the cells were washed twice with PBS to remove unbound primary antibody, and then the target cells were incubated with 200 μL PE-labeled secondary antibody (2 μg/mL) at 4° C. for 30 min. The cells were washed twice with PBS to remove unbound secondary antibody. Finally, the cells were resuspended in 200 μL PBS, and the binding affinity of the test antibody to AXL on the cell surface was determined by a flow cytometer (FACSCalibur)

In assay [3] the target is T2, human AXL on the surface of tumor cells. Briefly: FACS on NCI-H1299 cells. On the procedure:
as §1
AXL-high-expression lung cancer cells NCI-H1299 were used as target cells. 100 μL of the test antibody diluted in a 3-fold gradient was used as primary antibody, and mixed with 1×10⁵ NCI-H1299 cells suspended in 100 μL RPMI-1640 serum-free medium. The operation method was the same as above. Finally, the cells were resuspended in 200 μL PBS, and the binding affinity of the tested antibody to AXL on the cell surface was determined by a flow cytometer (FACSAria II).

The target in assay [4] is T1, extracellular domain of human AXL …. Briefly: ELISA, plate-coated AXL-ECD. On the procedure: (§2) The extracellular domain of AXL protein (AXL-ECD) was diluted to […] with the coating solution, and coated onto ELISA plate with 100 μL/well at 4° C. overnight. The excess antigen was washed off. The plate was blocked with 1% BSA at room temperature for 2 h, then each monoclonal antibody in a 3-fold dilution was added at 100 µL/well. The plate was incubated at room temperature for 1 h; the unbound antibody was washed off, and appropriate concentration of anti-mouse secondary antibody labeled with horseradish peroxidase was added at 100 µL/well. The plate was incubated at room temperature for 0.5 h. The unbound secondary antibody was washed off. TMB Substrate was added and reacted for about 15 minutes. 1N HCL was added at 50 µL/well to stop the color reaction. Then the absorbance was measured at 450 nm and the obtained data was analyzed.

Assay [5] deals with T2, human AXL on the surface of tumor cells. The experiment in a line: FACS on MDA-MB-231 cells, mean EC50. Here is the method:
as §1

The target is the same in assay [6]. The experiment in a line: FACS on LCLC-103H cells. Here is the method: as §1
The experimental method was referred to Example 8.

Assay [7] addresses T3, cynomolgus monkey AXL on the surface of HEK-293T cells (cynomolgus monkey).
T3 construct: transiently expressed in HEK293T cells from pcDNA3.1
Briefly: FACS on HEK293T cells transiently expressing monkey AXL. Here is the method:
3. HEK293T cells were spread to a 50% density in a culture dish, and cultured overnight at 37° C. to a confluence of about 80%. […] of monkey/mouse-AXL vector plasmid prepared above was transiently transfected into the cells with Liposome Lipo2000 (Invitrogen). 24 hours after transfection, the proteins were collected for Western blot analysis, and the cells were collected for FACS to detect the binding activity of Hu002-2 and monkey/mouse AXL on HEK293T cell surface. The FACS detection test method may be referred to Example 18.

Assay [8] has as its target T1, extracellular domain of human AXL …. Briefly: ELISA, plate-coated AXL-ECD. Here is the method:
as §2
24 humanized antibodies in Table-6 were diluted by gradient, and their affinity to AXL-ECD protein was determined by ELISA. The experimental method was referred to Example 4.
The source holds these as a separate data set.

In assay [9] the target is T2, human AXL on the surface of tumor cells. Briefly: FACS on MDA-MB-231 cells. Here is the method: as §1
24 humanized antibodies in Table-6 were diluted by gradient, and their affinities to AXL, on the surface of MDA-MB-231 cells were determined by flow cytometer. The experimental method was referred to Example 8.
The source holds these as a separate data set.

B1: mAb005 (antibody, V domains shown)
VH: QVQLQQSGPELVKPGASVKISCKASGYSFTSYYIHWVQQRPGQGLEWIGWIYPGSDNTKYNEKFKDKATLTADTSSGTAYMQLSSLTSDDSAVFYCARNYYDYDGGTWFPYWGQGTLVTVSA
VL: DIQMTQTTSSLSASLGDRVTISCRASQDINYYLNWYQQKPDGTVKLLIYYTSRLHSRVPSRFSGSGSGTDYSLTISNLEQEDIATYFCQQGNTLPWTFGGGTKLEIK
notes: murine hybridoma antibody, IgG1/k; also called original murine antibody mAb005
Take B1: in [1], a half-maximal response (EC50) required 0.092 nM.

B2: mAb005c (antibody, V domains shown)
VH: QVQLQQSGPELVKPGASVKISCKASGYSFTSYYIHWVQQRPGQGLEWIGWIYPGSDNTKYNEKFKDKATLTADTSSGTAYMQLSSLTSDDSAVFYCARNYYDYDGGTWFPYWGQGTLVTVSA
VL: DIQMTQTTSSLSASLGDRVTISCRASQDINYYLNWYQQKPDGTVKLLIYYTSRLHSRVPSRFSGSGSGTDYSLTISNLEQEDIATYFCQQGNTLPWTFGGGTKLEIK
notes: also called human-mouse chimeric antibody mAb005c
Turning to B2, the “Highest MFI value (FACSCalibur)” value in assay [2] was 208 MFI. Also, in [3], the EC50 is 0.908 nM and the “Highest MFI value (FACSAria II)” value is 2140 MFI. Also, in assay [4], the EC50 amounted to 0.103 nM and the “Highest reading (OD450 nm)” value came to 3.78 OD450 nm. In assay [5], this molecule had an EC50 of 0.4 nM.

B3: mAb001 (antibody, V domains shown)
VH: AVQLQESGPSLVKPSQTLSLTCSVTGDSITSGYWSWIRKFPGNKLESMGYMTYSGATYYNPSLKSRISITRDTSKNQYYLQLNSVTPEDTATYYCARGGNSYFFDYWGQGTTLTVSS
VL: DIQMTQSPASLSVSVGETVTITCRASENIYSNLAWYQLKQGKSPHLLVYAATNLADGVPSRFSGSGSGTQYSLKIISLQSEDFGTYYCQHFWGTPLTFGAGTKLELK
notes: murine hybridoma antibody, IgG1/k; also called original murine antibody mAb001
B3 returned an EC50 in assay [1] of 0.073 nM.

B4: mAb001c (antibody, V domains shown)
VH: AVQLQESGPSLVKPSQTLSLTCSVTGDSITSGYWSWIRKFPGNKLESMGYMTYSGATYYNPSLKSRISITRDTSKNQYYLQLNSVTPEDTATYYCARGGNSYFFDYWGQGTTLTVSS
VL: DIQMTQSPASLSVSVGETVTITCRASENIYSNLAWYQLKQGKSPHLLVYAATNLADGVPSRFSGSGSGTQYSLKIISLQSEDFGTYYCQHFWGTPLTFGAGTKLELK
notes: also called human-mouse chimeric antibody mAb001c
As for B4, the “Highest MFI value (FACSCalibur)” value in assay [2] was 217 MFI. Also, in assay [3], a half-maximal effect (EC50) was put at 1.49 nM and the “Highest MFI value (FACSAria II)” value worked out at 2370 MFI. In addition, in assay [4], the EC50 turned out to be 0.092 nM and the “Highest reading (OD450 nm)” value worked out at 3.8 OD450 nm. In assay [5], this molecule yielded an EC50 of 0.84 nM.

B5: mAb002 (antibody, V domains shown)
VH: QIQLQQSGPELVKPGASVKISCKASGYPFTDFYINWVKQKPGQGLEWIGWIYPGSGNTKYNEKFKGKATLTVDTSSSTAYMQLSSLTSEDTAVYFCARSTGFFDYWGQGTTLTVSS
VL: QIVLTQSPALMSASPGEKVTMTCSASSSIGYMYWYQQKPRSSPKSWIYLTSNLASGVPARFSGSGSGTSYSLTISSMEAEDAATYYCQQWSSNPPTFGAGTKLELK
notes: murine hybridoma antibody, IgG1/k; also called original murine antibody mAb002
As for B5, the EC50 in assay [1] turned out to be 0.063 nM.

B6: AXL107 (antibody, V domains shown)
VH: EVQLLESGGGLVQPGGSLRLSCAASGFTFSSYAMNWVRQAPGKGLEWVSTTSGSGASTYYADSVKGRFTISRDNSKNTLYLQMNSLRAEDTAVYYCAKIWIAFDIWGQGTMVTV
VL: not shown
notes: also called control antibody AXL107; AXL07
Consider B6, for which the “Highest MFI value (FACSCalibur)” value in [2] worked out at 218 MFI. The EC50 in [3] was 0.655 nM; in assay [6], 0.8 nM; in [4], 0.075 nM; in [5] it was 0.433 nM. In addition, the “Highest MFI value (FACSAria II)” value in assay [3] stood at 2010 MFI. Besides, the “Highest reading (OD450 nm)” value in [4] turned out to be 3.77 OD450 nm.

B7: Hu002-2 (antibody, V domains shown)
VH: QVQLVQSGAEVKKPGASVKVSCKASGYPFTDFYINWVRQAPGQGLEWMGWIYPGSGNTKYNEKFKGRVTLTVDTSISTAYMELSRLRSDDTAVYYCARSTGFFDYWGQGTLVTVSS
VL: EIVLTQSPATLSLSPGERATLSCSASSSIGYMYWYQQKPGQAPRLLIYLTSNLASGIPARFSGSGSGTDFTLTISSLEPEDFAVYYCQQWSSNPPTFGQGTKLEIK
notes: humanized from mAb002c; also called Hu002c-2
In the case of B7, the EC50 in [7] is 0.135 nM; in [6] it was 0.37 nM; in [8], 0.055 nM; in assay [9], 0.112 nM. For the same molecule, the “TOP (OD450)” value in [8] worked out at 3.6 OD450. The “Highest MFI value (FACSCalibur)” value in assay [9] was 278 MFI.

B8: Hu002-4 (antibody, V domains shown)
VH: QVQLVQSGAEVKKPGASVKVSCKASGYPFTDFYINWVRQAPGQGLEWMGWIYPGSGNTKYNEKFKGRVTMTRDTSISTAYMELSRLRSDDTAVYYCARSTGFFDYWGQGTLVTVSS
VL: EIVLTQSPATLSLSPGERATLSCSASSSIGYMYWYQQKPGQAPRLLIYLTSNLASGIPARFSGSGSGTDYTLTISSLEPEDFAVYYCQQWSSNPPTFGQGTKLEIK
notes: humanized from mAb002c; also called Hu002c-4
In turn, B8 yielded an EC50 in [6] of 0.49 nM. Moreover, in assay [8], the EC50 stood at 0.055 nM and the “TOP (OD450)” value worked out at 3.6 OD450. Moreover, in assay [9], the EC50 amounted to 0.09 nM and the “Highest MFI value (FACSCalibur)” value was determined as 277 MFI.
